Data: PMC3917317 (Cell, 2013)
The star is where a group is joined. FITC = O=C1OC2(c3ccc(O)cc3Oc3cc(O)ccc32)c2ccc(NC(=S)*)cc21; βAla = NCCC(=O)O

Key:
[1] = target: T1, His-EcGlpG C104A+H254A (inactive mutant) (Escherichia coli, UniProt P09391 1-276, C104A | H254A); test: pull-down
T1 sequence (looked up): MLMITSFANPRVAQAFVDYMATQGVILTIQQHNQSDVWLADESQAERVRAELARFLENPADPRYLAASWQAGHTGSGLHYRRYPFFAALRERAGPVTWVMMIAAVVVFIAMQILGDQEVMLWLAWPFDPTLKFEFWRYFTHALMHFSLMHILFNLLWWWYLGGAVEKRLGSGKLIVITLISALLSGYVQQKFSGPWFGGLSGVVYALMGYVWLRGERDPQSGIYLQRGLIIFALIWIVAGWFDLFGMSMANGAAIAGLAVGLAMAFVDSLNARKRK

[2] = target: HA-EcGlpG S201A+H254A (inactive mutant) (Escherichia coli, UniProt P09391 1-276, S201A | H254A); test: SEC

B1: FITC-TatA (Providencia stuartii TatA residues 1-33 of 97) (peptide)
chain: {FITC-βAla}-MESTIATAAFGSPWQLIIIALLIILIFGTKKLR-NH2
SMILES: CC[C@H](C)[C@H](NC(=O)[C@H](CC(C)C)NC(=O)[C@@H](NC(=O)[C@@H](NC(=O)[C@H](CC(C)C)NC(=O)[C@H](CC(C)C)NC(=O)[C@H](C)NC(=O)[C@@H](NC(=O)[C@@H](NC(=O)[C@@H](NC(=O)[C@H](CC(C)C)NC(=O)[C@H](CCC(N)=O)NC(=O)[C@H](Cc1c[nH]c2ccccc12)NC(=O)[C@@H]1CCCN1C(=O)[C@H](CO)NC(=O)CNC(=O)[C@H](Cc1ccccc1)NC(=O)[C@H](C)NC(=O)[C@H](C)NC(=O)[C@@H](NC(=O)[C@H](C)NC(=O)[C@@H](NC(=O)[C@@H](NC(=O)[C@H](CO)NC(=O)[C@H](CCC(=O)O)NC(=O)[C@H](CCSC)NC(=O)CCNC(=S)Nc1ccc2c(c1)C(=O)OC21c2ccc(O)cc2Oc2cc(O)ccc21)[C@@H](C)O)[C@@H](C)CC)[C@@H](C)O)[C@@H](C)CC)[C@@H](C)CC)[C@@H](C)CC)[C@@H](C)CC)[C@@H](C)CC)C(=O)N[C@@H](Cc1ccccc1)C(=O)NCC(=O)N[C@H](C(=O)N[C@@H](CCCCN)C(=O)N[C@@H](CCCCN)C(=O)N[C@@H](CC(C)C)C(=O)N[C@@H](CCCNC(=N)N)C(N)=O)[C@@H](C)O
Work on B1 yielded a Kd [1] of at least 1 mM and a Kd [2] of 191 ± 29.4 µM.
